Earlier results as cited in patent US20200069786A1, “COMPOSITION AND PROCESS FOR PREPARING VACCINE” (TREOS BIO ZRT., priority 2018, published 2020).
Like-named read-outs stand apart in the source and are kept apart here.

System: TSA
[1] = TSA expression rate in LEUKEMIAS
[2] = TSA expression rate in LUNG cancer
[3] = TSA expression rate in MELANOMA
[4] = TSA expression rate in HEAD and NECK

B1: CTAGE1 (protein, UniProt Q96RT6 1-745, looked up)
cTAGE family member 2: MRPDSHPYGFPWELVIRAAVAGFFAVLFLWRSFRSVTSRLYVRREKKFAVALSGLIEEKCKLLEKFSLVQKEYEGYEVESSLKNASFEKEATEAQSLEATCEKLNRFNSELVHEILCLEKELKEEKSKHSEQNELMADISKRIQSLEDESKSLKSQVAEAKMTFKRFQANEERLEIEIQDAWKENSELQESQKQLLQEAEVWKEQVSELIKQKRTFEDSKVHAEQVLNDKENHIKTLTERLLKMKDGVAMLEEDVTDDDNLELEMNSESEDGAYLDNPPKGALKKLIHAAKLNASLKTLEGERNQIYIQLSEVDKTKEELTEHIKNLQTEQASLQSENTHFESENQKLQQKLKVMTELYQENEMKLYRKLIVEEKCRLEKEEKLSKVDEMISHATEELETYRKRAKDLKEFEKTIHFYQKKIILHEKKAHDNWSAAWTAERNLNDLRKENAHNRQKLTEIEFKIKLLEKDPYGLDVPNTAFGRQHSPYGPSPLGWPSSETRASLYPPTLLEGPLRLSPLLPRGGGRGSRGPGNPPDHQITKERGESSCDRLTDPHRAPSDAGPLAPPWEQDYRMMFPPPGQSYPDSALPPQRQDRFYSNCARLSGPAELRSFNMPSLDKMDGSMPSEMESSRNDTKDNLGNLKVPDSSLPAENEATGPGFVPPPLAPIRGLLFPVDTRGPFIRRGPPFPPPPPGTVFGASPDYFSPRDVPGPPRAPFAMRNVYLPRGFLPYRPPRPAFFPPAPTF
In the case of B1, the “Expression Rate (ER) %” value (TSA expression rate in BLADDER cancer) is listed as 53%, the “Expression Rate (ER) %” value (TSA expression rate in CRC) is listed as 19% and the “Expression Rate (ER) %” value [1] is listed as 72%.

B2: HORMAD2 (protein, UniProt Q8N7B1 1-307, looked up)
HORMA domain-containing …: MATAQLSHCITIHKASKETVFPSQITNEHESLKMVKKLFATSISCITYLRGLFPESSYGERHLDDLSLKILREDKKCPGSLHIIRWIQGCFDALEKRYLRMAVLTLYTDPMGSEKVTEMYQFKFKYTKEGATMDFDSHSSSTSFESGTNNEDIKKASVLLIRKLYILMQDLEPLPNNVVLTMKLHYYNAVTPHDYQPLGFKEGVNSHFLLFDKEPINVQVGFVSTGFHSMKVKVMTEATKVIDLENNLFRENSTTEIAHQGLDCDEEEECNDHIQRMNFVCSQQSSECSRKKRKVSEPVKVFIPNRK
In the case of B2, the “Expression Rate (ER) %” value [2] is given as 5%.

B3: CABYR (protein, UniProt O75952 1-493, looked up)
Calcium-binding tyrosine …: MISSKPRLVVPYGLKTLLEGISRAVLKTNPSNINQFAAAYFQELTMYRGNTTMDIKDLVKQFHQIKVEKWSEGTTPQKKLECLKEPGKTSVESKVPTQMEKSTDTDEDNVTRTEYSDKTTQFPSVYAVPGTEQTEAVGGLSSKPATPKTTTPPSSPPPTAVSPEFAYVPADPAQLAAQMLGKVSSIHSDQSDVLMVDVATSMPVVIKEVPSSEAAEDVMVAAPLVCSGKVLEVQVVNQTSVHVDLGSQPKENEAEPSTASSVPLQDEQEPPAYDQAPEVTLQADIEVMSTVHISSVYNDVPVTEGVVYIEQLPEQIVIPFTDQVACLKENEQSKENEQSPRVSPKSVVEKTTSGMSKKSVESVKLAQLEENAKYSSVYMEAEATALLSDTSLKGQPEVPAQLLDAEGAIKIGSEKSLHLEVEITSIVSDNTGQEESGENSVPQEMEGKPVLSGEAAEAVHSGTSVKSSSGPFPPAPEGLTAPEIEPEGESTAE
For B3, the “Expression Rate (ER) %” value (TSA expression rate in Esophageal) is given as 17% and the “Expression Rate (ER) %” value [2] is given as 16%.

B4: MAGE-B3 (protein, UniProt O15480 1-346, looked up)
Melanoma-associated antigen B3: MPRGQKSTLHAREKRQQTRGQTQDHQGAQITATNKKKVSFSSPLILGATIQKKSAGRSRSALKKPQRALSTTTSVDVSYKKSYKGANSKIEKKQSFSQGLSSTVQSRTDPLIMKTNMLVQFLMEMYKMKKPIMKADMLKIVQKSHKNCFPEILKKASFNMEVVFGVDLKKVDSTKDSYVLVSKMDLPNNGTVTRGRGFPKTGLLLNLLGVIFMKGNCATEEKIWEFLNKMRIYDGKKHFIFGEPRKLITQDLVKLKYLEYRQVPNSNPARYEFLWGPRAHAETSKMKVLEFWAKVNKTVPSAFQFWYEEALRDEEERVQAAAMLNDGSSAMGRKCSKAKASSSSHA
In the case of B4, the “Expression Rate (ER) %” value [2] is given as 0%.

B5: CALR3 (protein, UniProt Q96L12 20-384, looked up)
Calreticulin-3: TVYFQEEFLDGEHWRNRWLQSTNDSRFGHFRLSSGKFYGHKEKDKGLQTTQNGRFYAISARFKPFSNKGKTLVIQYTVKHEQKMDCGGGYIKVFPADIDQKNLNGKSQYYIMFGPDICGFDIKKVHVILHFKNKYHENKKLIRCKVDGFTHLYTLILRPDLSYDVKIDGQSIESGSIEYDWNLTSLKKETSPAESKDWEQTKDNKAQDWEKHFLDASTSKQSDWNGDLDGDWPAPMLQKPPYQDGLKPEGIHKDVWLHRKMKNTDYLTQYDLSEFENIGAIGLELWQVRSGTIFDNFLITDDEEYADNFGKATWGETKGPEREMDAIQAKEEMKKAREEEEEELLSGKINRHEHYFNQFHRRNEL
For B5, the “TSA Expression Rate (ER)” value (BREAST) is given as 0%, the “Expression Rate (ER) %” value (TSA expression rate in CRC) is given as 16% and the “Expression Rate (ER) %” value (TSA expression rate in GASTRIC cancer) is given as 40%. The “Expression Rate (ER) %” value (TSA expression rate in Kidney) was 80%, the “Expression Rate (ER) %” value [2] was 9% and the “Expression Rate (ER) %” value [3] was 44%.

B6: PIWIL3 (protein, UniProt Q7Z3Z3 1-882, looked up)
Piwi-like protein 3: MPGRARTRARGRARRRESYQQEAPGGPRAPGSATTQEPPQLQSTPRPLQEEVPVVRPLQPRAARGGAGGGAQSQGVKEPGPEAGLHTAPLQERRIGGVFQDLVVNTRQDMKHVKDSKTGSEGTVVQLLANHFRVISRPQWVAYKYNVDYKPDIEDGNLRTILLDQHRRKFGERHIFDGNSLLLSRPLKERRVEWLSTTKDKNIVKITVEFSKELTPTSPDCLRYYNILFRRTFKLLDFEQVGRNYYTKKKAIQLYRHGTSLEIWLGYVTSVLQYENSITLCADVSHKLLRIETAYDFIKRTSAQAQTGNIREEVTNKLIGSIVLTKYNNKTYRVDDIDWKQNPEDTFNKSDGSKITYIDYYRQQHKEIVTVKKQPLLVSQGRWKKGLTGTQREPILLIPQLCHMTGLTDEICKDYSIVKELAKHTRLSPRRRHHTLKEFINTLQDNKKVRELLQLWDLKFDTNFLSVPGRVLKNANIVQGRRMVKANSQGDWSREIRELPLLNAMPLHSWLILYSRSSHREAMSLKGHLQSVTAPMGITMKPAEMIEVDGDANSYIDTLRKYTRPTLQMGMSCLLVFKVICILPNDDKRRYDSIKRYLCTKCPIPSQCVVKKTLEKVQARTIVTKIAQQMNCKMGGALWKVETDVQRTMFVGIDCFHDIVNRQKSIAGFVASTNAELTKWYSQCVIQKTGEELVKELEICLKAALDVWCKNESSMPHSVIVYRDGVGDGQLQALLDHEAKKMSTYLKTISPNNFTLAFIVVKKRINTRFFLKHGSNFQNPPPGTVIDVELTRNEWYDFFIVSQSVQDGTVTPTHYNVIYDTIGLSPDTVQRLTYCLCHMYYNLPGIIRVPAPCHYAHKLAYLVGQSIHQEPNRSLSTRLFYL
For B6, the “TSA Expression Rate (ER)” value (OVARIAN) is listed as 88%, the “Expression Rate (ER) %” value (TSA expression rate in CRC) is listed as 96% and the “Expression Rate (ER) %” value [2] is listed as 7%.

B7: PTTG-1 (protein, UniProt O95997 2-202, looked up)
Securin: ATLIYVDKENGEPGTRVVAKDGLKLGSGPSIKALDGRSQVSTPRFGKTFDAPPALPKATRKALGTVNRATEKSVKTKGPLKQKQPSFSAKKMTEKTVKAKSSVPASDDAYPEIEKFFPFNPLDFESFDLPEEHQIAHLPLSGVPLMILDEERELEKLFQLGPPSPVKMPSPPWESNLLQSPSSILSTLDVELPPVCCDIDI
In the case of B7, the “TSA Expression Rate (ER)” value (LUNG) is given as 20%.

B8: SPAG6 (protein, UniProt O75602 1-509, looked up)
Sperm-associated antigen 6: MSQRQVLQVFEQYQKARTQFVQMVAELATRPQNIETLQNAGVMSLLRTLLLDVVPTIQQTAALALGRLANYNDDLAEAVVKCDILPQLVYSLAEQNRFYKKAAAFVLRAVGKHSPQLAQAIVDCGALDTLVICLEDFDPGVKEAAAWALRYIARHNAELSQAVVDAGAVPLLVLCIQEPEIALKRIAASALSDIAKHSPELAQTVVDAGAVAHLAQMILNPDAKLKHQILSALSQVSKHSVDLAEMVVEAEIFPVVLTCLKDKDEYVKKNASTLIREIAKHTPELSQLVVNAGGVAAVIDCIGSCKGNTRLPGIMMLGYVAAHSENLAMAVIISKGVPQLSVCLSEEPEDHIKAAAAWALGQIGRHTPEHARAVAVTNTLPVLLSLYMSTESSEDLQVKSKKAIKNILQKCTYLPALEPFLYDAPPNILKHVVGQFSKVLPHDSKARRLFVTSGGLKKVQEIKAEPGSLLQEYINSINSCYPEEIVRYYSPGYSDTLLQRVDSYQPLNN
For B8, the “TSA Expression Rate (ER)” value (BREAST) is given as 21% and the “TSA Expression Rate (ER)” value (LUNG) is given as 29%.

B9: ADAM29 (protein, UniProt Q9UKF5 194-820, looked up)
Disintegrin and …: WIHFRIVEIVVVIDNYLYIRYERNDSKLLEDLYVIVNIVDSILDVIGVKVLLFGLEIWTNKNLIVVDDVRKSVHLYCKWKSENITPRMQHDTSHLFTTLGLRGLSGIGAFRGMCTPHRSCAIVTFMNKTLGTFSIAVAHHLGHNLGMNHDEDTCRCSQPRCIMHEGNPPITKFSNCSYGDFWEYTVERTKCLLETVHTKDIFNVKRCGNGVVEEGEECDCGPLKHCAKDPCCLSNCTLTDGSTCAFGLCCKDCKFLPSGKVCRKEVNECDLPEWCNGTSHKCPDDFYVEDGIPCKERGYCYEKSCHDRNEQCRRIFGAGANTASETCYKELNTLGDRVGHCGIKNATYIKCNISDVQCGRIQCENVTEIPNMSDHTTVHWARFNDIMCWSTDYHLGMKGPDIGEVKDGTECGIDHICIHRHCVHITILNSNCSPAFCNKRGICNNKHHCHCNYLWDPPNCLIKGYGGSVDSGPPPKRKKKKKFCYLCILLLIVLFILLCCLYRLCKKSKPIKKQQDVQTPSAKEEEKIQRRPHELPPQSQPWVMPSQSQPPVTPSQSHPQVMPSQSQPPVTPSQSQPRVMPSQSQPPVMPSQSHPQLTPSQSQPPVTPSQRQPQLMPSQSQPPVTPS
For B9, the “Expression Rate (ER) %” value [2] is given as 7%.

B10: LIPI (protein, UniProt Q6XZB0 16-460, looked up)
Lipase member I: DNKRPCLEFSQLSVKDSFRDLFIPRIETILMMYTRNNLNCAEPLFEQNNSLNVNFNTQKKTVWLIHGYRPVGSIPLWLQNFVRILLNEEDMNVIVVDWSRGATTFIYNRAVKNTRKVAVSLSVHIKNLLKHGASLDNFHFIGVSLGAHISGFVGKIFHGQLGRITGLDPAGPRFSRKPPYSRLDYTDAKFVDVIHSDSNGLGIQEPLGHIDFYPNGGNKQPGCPKSIFSGIQFIKCNHQRAVHLFMASLETNCNFISFPCRSYKDYKTSLCVDCDCFKEKSCPRLGYQAKLFKGVLKERMEGRPLRTTVFLDTSGTYPFCTYYFVLSIIVPDKTMMDGSFSFKLLNQLGMIEEPRLYEKNKPFYKLQEVKILAQFYNDFVNISSIGLTYFQSSNLQCSTCTYKIQSLMLKSLTYPERPPLCRYNIVLKDREEVFLNPNTCTPKNT
For B10, the “Expression Rate (ER) %” value (TSA expression rate in CRC) is given as 0%, the “Expression Rate (ER) %” value [4] is given as 0% and the “Expression Rate (ER) %” value (TSA expression rate in Kidney) is given as 25%. The “Expression Rate (ER) %” value [1] was 6%, the “Expression Rate (ER) %” value [2] was 0% and the “Expression Rate (ER) %” value [3] was 0%.

B11: GAGE-7 (protein, UniProt O76087 1-117, looked up)
G antigen 7: MSWRGRSTYYWPRPRRYVQPPEMIGPMRPEQFSDEVEPATPEEGEPATQRQDPAAAQEGEDEGASAGQGPKPEAHSQEQGHPQTGCECEDGPDGQEMDPPNPEEVKTPEEGEKQSQC
For B11, the “TSA Expression Rate (ER)” value (BREAST) is listed as 31% and the “Expression Rate (ER) %” value [4] is listed as 9%.

B12: COX6B2 (protein, UniProt Q6YFQ2 1-88, looked up)
Cytochrome c oxidase subunit …: MLDVEAQEPPKGKWSTPPFDPRFPSQNQIRNCYQNFLDYHRCLKTRTRRGKSTQPCEYYFRVYHSLCPISWVESWNEQIKNGIFAGKI
In the case of B12, the “TSA Expression Rate (ER)” value (LUNG) is given as 24%.
